{
  "source": "patent US20230040065A1",
  "about": "(Janssen / Centocor, published 2023)",
  "binders": {"B1": {"name": "TNV148 (GenTNV148.26.12) (antibody, human IgG1, kappa, V domains shown)", "VH": "QVQLVESGGGVVQPGRSLRLSCAASGFIFSSYAMHWVRQAPGNGLEWVAFMSYDGSNKKYADSVKGRFTISRDNPKNTLYLQMNSLRAEDTAVYYCARDRGIAAGGNYYYYGMDVWGQGTTVTVSS", "VL": "EIVLTQSPATLSLSPGERATLSCRASQSVYSYLAWYQQKPGQAPRLLIYDASNRATGIPARFSGSGSGTDFTLTISSLEPEDFAVYYCQQRSNWPPFTFGPGTKVDIKR", "notes": "Hybridoma-derived fully human IgG1 kappa mAb (G1m(z)); also called C420A"}, "B2": {"name": "TNV86 (GenTNV86.14.34) (antibody, human IgG1, kappa, V domains shown)", "VH": "B1 VH", "VL": "B1 VL", "notes": "Hybridoma-derived fully human IgG1 kappa mAb; also called C417A"}},
  "key": {"recombinant human TNFα [1]": {"target": "T1, recombinant human TNFα (human, UniProt P01375 77-233, 125I label in the receptor binding assay)", "T1 sequence (P01375 77-233 limits assumed)": "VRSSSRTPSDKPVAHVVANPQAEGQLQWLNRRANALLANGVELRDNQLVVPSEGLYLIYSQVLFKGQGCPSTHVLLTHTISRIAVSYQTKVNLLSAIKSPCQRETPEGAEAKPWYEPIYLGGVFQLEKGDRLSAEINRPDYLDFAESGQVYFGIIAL", "experiment": "cell-based or functional assay"}, "recombinant human TNFα [2]": {"target": "T1, recombinant human TNFα", "experiment": "inhibition of 125I-TNFα binding to plate-coated p55-sf2, hybridoma supernatants", "description": "(§1) 50:1 of p55-sf2 at 0.5:g/ml in PBS was added to Optiplates to coat the wells during a one-hour incubation at 37° C. Serial dilutions of the eight TNV cell supernatants were prepared in 96-well round-bottom plates using PBS/0.1% BSA as diluent. […] The mixture was preincubated for one hour at RT. The coated Optiplates were washed to remove unbound p55-sf2 and 50:1 of the ¹²⁵I-TNFα/cell supernatant mixture was transferred to the Optiplates. After 2 hrs at RT, Optiplates were washed three times with PBS-Tween. […] of Microscint-20 was added and the cpm bound determined using the TopCount gamma counter.\nA simple binding assay was done to determine whether the eight TNV mAbs contained in hybridoma cell supernatant were capable of blocking TNFα binding to receptor. The concentrations of the TNV mAbs in their respective cell supernatants were first determined by standard ELISA analysis for human IgG."}, "recombinant human TNFα [3]": {"target": "T1, recombinant human TNFα", "experiment": "inhibition of 125I-TNFα (5 ng/ml) binding to plate-coated p55-sf2; hybridoma supernatant preincubated with 125I-TNFα, cpm bound counted", "description": "Varying amounts of hybridoma cell supernatants containing known amounts of TNV mAb were preincubated with a fixed concentration (5 ng/ml) of ¹²⁵I-labeled TNFα. […] The amount of TNFα that bound to the p55 receptor in the presence of the mAbs was determined after washing away the unbound material and counting using a gamma counter. Although eight TNV mAb samples were tested in these experiments, for simplicity three of the mAbs that were shown by DNA sequence analyses to be identical to one of the other TNV mAbs (see Section 5.2.2) are not shown here. Each sample was tested in duplicate. The results shown are representative of two independent experiments.\nas §1"}},
  "data": [
    {"binder": "B1", "values": [
      {"measurement": "neutralizing TNFα bioactivity (in vitro)", "setting": "recombinant human TNFα [1]", "result": "4 fold (against TNV14)"},
      {"measurement": "fold better at blocking TNF binding to p55-sf2, against TNV118 and TNV14", "setting": "recombinant human TNFα [2]", "result": "~4", "unit": "fold"},
      {"measurement": "IC50 (read off the curve)", "setting": "recombinant human TNFα [3]", "result": "~4", "unit": "ng/mL"}
    ]},
    {"binder": "B2", "values": [
      {"measurement": "fold better at blocking TNF binding to p55-sf2, against TNV118 and TNV14", "setting": "recombinant human TNFα [2]", "result": "~4", "unit": "fold"}
    ]}
  ]
}
